For the experiment, the target named is T1, galectin-3 (Homo sapiens (assumed; ), UniProt P17931, biotin (biotinylated galectin-3)).
T1 construct: galectin-3
As to the kind of experiment: ELISA; biotinylated galectin-3 (10 µg/mL) captured on NeutrAvidin-coated wells blocked with 3% skim milk; VHH at 800, 400 and 200 nM in solution, 30 min; detected with HRP anti-FLAG antibody; absorbance at 450 nm. The settings on record: both partners purified.

T1 sequence (P17931 whole entry): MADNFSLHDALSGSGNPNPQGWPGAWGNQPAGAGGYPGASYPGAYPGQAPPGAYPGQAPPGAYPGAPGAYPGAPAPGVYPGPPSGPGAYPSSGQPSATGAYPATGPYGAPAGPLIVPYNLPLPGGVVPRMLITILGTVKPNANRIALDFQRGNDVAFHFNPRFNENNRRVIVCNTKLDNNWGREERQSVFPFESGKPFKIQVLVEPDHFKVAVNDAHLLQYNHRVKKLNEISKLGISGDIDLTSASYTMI

B1: wild-type VHH (3DWT) (VHH)
VHH: QVQLVESGGGSVQAGGSLRLSCTASGGSEYSYSTFSLGWFRQAPGQEREAVAAIASMGGLTYYADSVKGRFTISRDNAKNTVTLQMNNLKPEDTAIYYCAAVRGYFMRLPSSHNFRYWGQGTQVTVSS
notes: framework 1 of the VHH of PDB 3DWT; CDR1 (13 aa) of the wild type; framework 2 of the VHH of PDB 3DWT; CDR2 (10 aa) of the wild type; framework 3 of the VHH of PDB 3DWT; CDR3 (16 aa) of the wild type; framework 4 of the VHH of PDB 3DWT; also called wild-type 3DWT; source: E. coli BL21(DE3), purified (IMAC, SEC)
Take B1: the binding result is “no binding (tested: 800 nM, 400 nM, and 200 nM of VHHs)”.
